B1: GpH7-B3 variant P271_06M/GpL16-k0 (antibody, human IgG1, kappa)
heavy: not shown
light: DIVMTQSPLSLPVTPGEPASISCQASESLVHSNRNTYLHWYLQKPGQSPQLLIYKVSNRFSGVPDRFSGSGSGTDFTLKISRVEAEDVGVYYCSQNTHVPPTFGQGTKVEIERTVAAPSVFIFPPSDEQLKSGTASVVCLLNNFYPREAKVQWKVDNALQSGNSQESVTEQDSKDSTYSLSSTLTLSKADYEKHKVYACEVTHQGLSSPVTKSFNRGEC
notes: also called Ho Ab P271_06M
B2: GpH7-B3 variant Q295_03V/GpL16-k0 (antibody, human IgG1, kappa)
heavy: not shown
light: B1 light
notes: also called Ho Ab Q295_03V
B3: GpH7-B3 variant S267_01G/GpL16-k0 (antibody, human IgG1, kappa)
heavy: not shown
light: B1 light
notes: also called Ho Ab S267_01G
B4: GpH7-B3 variant Q295_05P/GpL16-k0 (antibody, human IgG1, kappa)
heavy: not shown
light: B1 light
notes: also called Ho Ab Q295_05P
B5: GpH7-B3 variant S267_02A/GpL16-k0 (antibody, human IgG1, kappa)
heavy: not shown
light: B1 light
notes: also called Ho Ab S267_02A
B6: GpH7-B3 variant S298_12R/GpL16-k0 (antibody, human IgG1, kappa)
heavy: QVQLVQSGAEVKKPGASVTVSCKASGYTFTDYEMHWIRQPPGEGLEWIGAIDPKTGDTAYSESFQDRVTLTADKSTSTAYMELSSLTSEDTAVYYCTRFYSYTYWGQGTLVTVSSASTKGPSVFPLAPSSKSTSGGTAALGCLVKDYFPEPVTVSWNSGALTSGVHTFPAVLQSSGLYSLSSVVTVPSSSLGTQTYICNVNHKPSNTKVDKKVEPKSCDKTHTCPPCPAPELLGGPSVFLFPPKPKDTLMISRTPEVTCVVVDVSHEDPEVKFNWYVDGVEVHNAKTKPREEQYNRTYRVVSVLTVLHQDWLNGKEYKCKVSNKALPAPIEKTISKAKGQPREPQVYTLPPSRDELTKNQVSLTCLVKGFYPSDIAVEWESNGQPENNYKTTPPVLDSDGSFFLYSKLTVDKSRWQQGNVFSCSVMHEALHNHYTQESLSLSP
light: B1 light
notes: also called Ho Ab S298_12R
B7: GpH7-B3 variant P271_13S/GpL16-k0 (antibody, human IgG1, kappa)
heavy: not shown
light: B1 light
notes: also called Ho Ab P271_13S
B8: GpH7-B3 variant S298_15Y/GpL16-k0 (antibody, human IgG1, kappa)
heavy: not shown
light: B1 light
notes: also called Ho Ab S298_15Y
B9: GpH7-B3 variant S267_16H/GpL16-k0 (antibody, human IgG1, kappa)
heavy: not shown
light: B1 light
notes: also called Ho Ab S267_16H
B10: GpH7-B3 variant S298_07I/GpL16-k0 (antibody, human IgG1, kappa)
heavy: not shown
light: B1 light
notes: also called Ho Ab S298_07I
B11: GpH7-B3 variant Q295_07I/GpL16-k0 (antibody, human IgG1, kappa)
heavy: not shown
light: B1 light
notes: also called Ho Ab Q295_07I
B12: GpH7-B3 variant S298_02A/GpL16-k0 (antibody, human IgG1, kappa)
heavy: not shown
light: B1 light
notes: also called Ho Ab S298_02A
B13: GpH7-B3 variant Q295_04F/GpL16-k0 (antibody, human IgG1, kappa)
heavy: not shown
light: B1 light
notes: also called Ho Ab Q295_04F
B14: GpH7-B3 variant S298_10E/GpL16-k0 (antibody, human IgG1, kappa)
heavy: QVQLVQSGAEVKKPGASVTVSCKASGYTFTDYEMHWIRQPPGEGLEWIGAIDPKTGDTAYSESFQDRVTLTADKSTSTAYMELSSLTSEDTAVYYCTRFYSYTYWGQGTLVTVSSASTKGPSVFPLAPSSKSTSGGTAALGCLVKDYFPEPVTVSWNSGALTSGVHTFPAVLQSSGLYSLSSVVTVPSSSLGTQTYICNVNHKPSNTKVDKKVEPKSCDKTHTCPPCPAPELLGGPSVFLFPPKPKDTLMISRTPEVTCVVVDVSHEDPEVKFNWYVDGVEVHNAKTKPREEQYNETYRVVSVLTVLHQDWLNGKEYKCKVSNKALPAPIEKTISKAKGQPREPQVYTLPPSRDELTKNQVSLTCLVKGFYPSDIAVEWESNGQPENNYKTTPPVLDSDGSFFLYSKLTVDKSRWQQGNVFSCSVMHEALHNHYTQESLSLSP
light: B1 light
notes: also called Ho Ab S298_10E
B15: GpH7-B3 variant P271_20W/GpL16-k0 (antibody, human IgG1, kappa)
heavy: not shown
light: B1 light
notes: also called Ho Ab P271_20W
B16: GpH7-B3 variant P271_12R/GpL16-k0 (antibody, human IgG1, kappa)
heavy: not shown
light: B1 light
notes: also called Ho Ab P271_12R
B17: GpH7-B3 variant S298_18N/GpL16-k0 (antibody, human IgG1, kappa)
heavy: not shown
light: B1 light
notes: also called Ho Ab S298_18N
B18: GpH7-B3 variant P271_07I/GpL16-k0 (antibody, human IgG1, kappa)
heavy: not shown
light: B1 light
notes: also called Ho Ab P271_07I
B19: GpH7-B3 variant P271_11K/GpL16-k0 (antibody, human IgG1, kappa)
heavy: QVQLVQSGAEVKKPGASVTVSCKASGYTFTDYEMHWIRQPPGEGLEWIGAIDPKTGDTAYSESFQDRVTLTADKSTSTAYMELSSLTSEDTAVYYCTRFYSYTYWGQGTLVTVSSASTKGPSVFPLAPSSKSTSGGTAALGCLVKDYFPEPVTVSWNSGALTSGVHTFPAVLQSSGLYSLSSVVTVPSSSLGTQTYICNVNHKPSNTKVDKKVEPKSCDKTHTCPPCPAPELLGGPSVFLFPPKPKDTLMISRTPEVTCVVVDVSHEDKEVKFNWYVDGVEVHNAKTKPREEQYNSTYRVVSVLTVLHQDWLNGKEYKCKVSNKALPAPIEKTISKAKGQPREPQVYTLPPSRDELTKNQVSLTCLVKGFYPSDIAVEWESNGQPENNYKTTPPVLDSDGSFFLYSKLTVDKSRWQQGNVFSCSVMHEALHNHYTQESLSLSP
light: B1 light
notes: also called Ho Ab P271_11K
B20: GpH7-B3 variant Q295_14T/GpL16-k0 (antibody, human IgG1, kappa)
heavy: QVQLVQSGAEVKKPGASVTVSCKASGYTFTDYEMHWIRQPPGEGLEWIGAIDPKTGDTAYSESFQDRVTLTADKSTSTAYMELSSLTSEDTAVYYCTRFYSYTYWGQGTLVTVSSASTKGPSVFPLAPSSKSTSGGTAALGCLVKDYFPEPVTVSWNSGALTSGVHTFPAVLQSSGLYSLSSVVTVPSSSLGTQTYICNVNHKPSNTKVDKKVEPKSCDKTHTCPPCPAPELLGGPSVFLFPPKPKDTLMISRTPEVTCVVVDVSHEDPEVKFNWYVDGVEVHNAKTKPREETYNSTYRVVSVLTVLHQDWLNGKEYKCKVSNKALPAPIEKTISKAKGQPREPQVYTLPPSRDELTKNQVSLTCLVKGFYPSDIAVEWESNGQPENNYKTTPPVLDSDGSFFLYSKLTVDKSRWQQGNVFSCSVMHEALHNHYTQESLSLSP
light: B1 light
notes: also called Ho Ab Q295_14T
B21: GpH7-B3 variant S239_14T/GpL16-k0 (antibody, human IgG1, kappa)
heavy: not shown
light: B1 light
notes: also called Ho Ab S239_14T
B22: GpH7-B3 variant Q295_18N/GpL16-k0 (antibody, human IgG1, kappa)
heavy: not shown
light: B1 light
notes: also called Ho Ab Q295_18N
B23: GpH7-B3 variant S324_02A/GpL16-k0 (antibody, human IgG1, kappa)
heavy: not shown
light: B1 light
notes: also called Ho Ab S324_02A
B24: GpH7-B3 variant Q295_13S/GpL16-k0 (antibody, human IgG1, kappa)
heavy: not shown
light: B1 light
notes: also called Ho Ab Q295_13S
B25: GpH7-B3 variant S267_08L/GpL16-k0 (antibody, human IgG1, kappa)
heavy: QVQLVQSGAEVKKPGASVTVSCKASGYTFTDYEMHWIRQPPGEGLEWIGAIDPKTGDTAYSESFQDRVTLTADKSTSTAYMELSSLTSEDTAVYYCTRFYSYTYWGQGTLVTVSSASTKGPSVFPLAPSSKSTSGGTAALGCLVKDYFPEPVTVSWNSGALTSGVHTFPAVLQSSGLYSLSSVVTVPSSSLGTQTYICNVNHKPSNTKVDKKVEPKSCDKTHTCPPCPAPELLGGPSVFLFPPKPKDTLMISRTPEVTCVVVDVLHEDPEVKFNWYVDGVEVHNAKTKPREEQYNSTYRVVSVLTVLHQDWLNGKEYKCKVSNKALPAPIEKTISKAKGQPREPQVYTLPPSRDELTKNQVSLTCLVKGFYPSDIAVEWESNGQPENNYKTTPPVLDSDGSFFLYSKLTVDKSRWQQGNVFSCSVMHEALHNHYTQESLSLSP
light: B1 light
notes: also called Ho Ab S267_08L
B26: GpH7-B3 variant Q295_08L/GpL16-k0 (antibody, human IgG1, kappa)
heavy: not shown
light: B1 light
notes: also called Ho Ab Q295_08L
B27: GpH7-B3 variant S239_18N/GpL16-k0 (antibody, human IgG1, kappa)
heavy: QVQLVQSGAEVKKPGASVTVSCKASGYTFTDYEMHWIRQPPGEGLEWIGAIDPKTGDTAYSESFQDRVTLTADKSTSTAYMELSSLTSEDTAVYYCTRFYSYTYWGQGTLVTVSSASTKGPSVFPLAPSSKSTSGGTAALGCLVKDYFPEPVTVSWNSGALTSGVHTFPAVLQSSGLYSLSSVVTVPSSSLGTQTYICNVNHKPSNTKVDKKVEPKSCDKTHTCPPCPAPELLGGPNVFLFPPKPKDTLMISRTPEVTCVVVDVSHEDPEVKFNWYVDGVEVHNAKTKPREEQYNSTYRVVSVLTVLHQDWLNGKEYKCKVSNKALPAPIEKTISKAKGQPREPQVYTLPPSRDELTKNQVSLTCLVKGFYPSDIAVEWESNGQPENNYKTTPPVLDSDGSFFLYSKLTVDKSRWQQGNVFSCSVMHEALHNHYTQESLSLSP
light: B1 light
notes: also called Ho Ab S239_18N
B28: GpH7-B3 variant S298_03V/GpL16-k0 (antibody, human IgG1, kappa)
heavy: not shown
light: B1 light
notes: also called Ho Ab S298_03V
B29: GpH7-B3 variant S298_16H/GpL16-k0 (antibody, human IgG1, kappa)
heavy: not shown
light: B1 light
notes: also called Ho Ab S298_16H
B30: GpH7-B3 variant S239_01G/GpL16-k0 (antibody, human IgG1, kappa)
heavy: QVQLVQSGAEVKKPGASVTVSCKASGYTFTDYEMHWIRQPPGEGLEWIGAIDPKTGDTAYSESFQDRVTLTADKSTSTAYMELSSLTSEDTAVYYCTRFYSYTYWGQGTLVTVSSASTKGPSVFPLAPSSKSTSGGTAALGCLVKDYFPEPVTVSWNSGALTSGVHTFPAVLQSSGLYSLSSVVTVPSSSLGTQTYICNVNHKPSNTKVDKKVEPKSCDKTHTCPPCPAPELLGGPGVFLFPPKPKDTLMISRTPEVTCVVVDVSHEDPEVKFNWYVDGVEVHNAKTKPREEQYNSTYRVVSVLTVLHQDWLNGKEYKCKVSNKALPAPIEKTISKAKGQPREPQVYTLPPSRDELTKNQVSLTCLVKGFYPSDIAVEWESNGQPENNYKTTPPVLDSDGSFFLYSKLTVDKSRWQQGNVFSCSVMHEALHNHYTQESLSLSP
light: B1 light
notes: also called Ho Ab S239_01G
B31: GpH7-B3 variant S298_04F/GpL16-k0 (antibody, human IgG1, kappa)
heavy: not shown
light: B1 light
notes: also called Ho Ab S298_04F
B32: GpH7-B3 variant S298_08L/GpL16-k0 (antibody, human IgG1, kappa)
heavy: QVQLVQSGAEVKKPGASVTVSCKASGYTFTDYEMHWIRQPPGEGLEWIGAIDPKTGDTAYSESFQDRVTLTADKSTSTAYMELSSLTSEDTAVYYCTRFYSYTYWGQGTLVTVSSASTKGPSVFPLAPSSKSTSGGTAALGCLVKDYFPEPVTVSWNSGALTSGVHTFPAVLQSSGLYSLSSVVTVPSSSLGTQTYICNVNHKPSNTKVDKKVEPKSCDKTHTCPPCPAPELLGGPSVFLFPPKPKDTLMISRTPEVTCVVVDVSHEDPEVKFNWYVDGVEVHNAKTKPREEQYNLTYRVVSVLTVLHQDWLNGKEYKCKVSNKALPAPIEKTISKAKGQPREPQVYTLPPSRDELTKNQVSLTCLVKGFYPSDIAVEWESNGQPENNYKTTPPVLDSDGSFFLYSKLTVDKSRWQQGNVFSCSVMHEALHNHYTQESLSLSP
light: B1 light
notes: also called Ho Ab S298_08L
B33: GpH7-B3 variant Q295_02A/GpL16-k0 (antibody, human IgG1, kappa)
heavy: not shown
light: B1 light
notes: also called Ho Ab Q295_02A
B34: GpH7-B3 variant S298_06M/GpL16-k0 (antibody, human IgG1, kappa)
heavy: not shown
light: B1 light
notes: also called Ho Ab S298_06M
B35: GpH7-B3 variant S324_08L/GpL16-k0 (antibody, human IgG1, kappa)
heavy: not shown
light: B1 light
notes: also called Ho Ab S324_08L
B36: GpH7-B3 variant S324_03V/GpL16-k0 (antibody, human IgG1, kappa)
heavy: not shown
light: B1 light
notes: also called Ho Ab S324_03V
B37: GpH7-B3 variant S298_01G/GpL16-k0 (antibody, human IgG1, kappa)
heavy: not shown
light: B1 light
notes: also called Ho Ab S298_01G
B38: GpH7-B3 variant S298_14T/GpL16-k0 (antibody, human IgG1, kappa)
heavy: not shown
light: B1 light
notes: also called Ho Ab S298_14T
B39: GpH7-B3 variant S298_19Q/GpL16-k0 (antibody, human IgG1, kappa)
heavy: not shown
light: B1 light
notes: also called Ho Ab S298_19Q
B40: GpH7-B3 variant S239_09D/GpL16-k0 (antibody, human IgG1, kappa)
heavy: not shown
light: B1 light
notes: also called Ho Ab S239_09D; GpH7-B3-06-09D/GpL16-k0
B41: GpH7-B3 variant S267_09D/GpL16-k0 (antibody, human IgG1, kappa)
heavy: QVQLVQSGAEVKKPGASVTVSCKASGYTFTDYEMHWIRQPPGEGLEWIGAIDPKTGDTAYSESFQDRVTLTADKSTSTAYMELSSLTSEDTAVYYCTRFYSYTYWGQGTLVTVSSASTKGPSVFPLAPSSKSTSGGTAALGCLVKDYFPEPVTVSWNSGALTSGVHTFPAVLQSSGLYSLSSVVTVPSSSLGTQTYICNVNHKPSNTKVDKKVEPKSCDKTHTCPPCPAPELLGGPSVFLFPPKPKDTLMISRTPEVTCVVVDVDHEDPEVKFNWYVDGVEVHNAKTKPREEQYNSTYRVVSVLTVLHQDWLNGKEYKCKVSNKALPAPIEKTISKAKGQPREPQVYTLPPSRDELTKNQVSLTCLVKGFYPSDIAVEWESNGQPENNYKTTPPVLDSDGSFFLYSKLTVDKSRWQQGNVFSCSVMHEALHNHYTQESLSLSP
light: B1 light
notes: also called Ho Ab S267_09D
B42: GpH7-B3 variant S239_19Q/GpL16-k0 (antibody, human IgG1, kappa)
heavy: not shown
light: B1 light
notes: also called Ho Ab S239_19Q
B43: GpH7-B3 variant S267_03V/GpL16-k0 (antibody, human IgG1, kappa)
heavy: not shown
light: B1 light
notes: also called Ho Ab S267_03V
B44: GpH7-B3 variant S298_20W/GpL16-k0 (antibody, human IgG1, kappa)
heavy: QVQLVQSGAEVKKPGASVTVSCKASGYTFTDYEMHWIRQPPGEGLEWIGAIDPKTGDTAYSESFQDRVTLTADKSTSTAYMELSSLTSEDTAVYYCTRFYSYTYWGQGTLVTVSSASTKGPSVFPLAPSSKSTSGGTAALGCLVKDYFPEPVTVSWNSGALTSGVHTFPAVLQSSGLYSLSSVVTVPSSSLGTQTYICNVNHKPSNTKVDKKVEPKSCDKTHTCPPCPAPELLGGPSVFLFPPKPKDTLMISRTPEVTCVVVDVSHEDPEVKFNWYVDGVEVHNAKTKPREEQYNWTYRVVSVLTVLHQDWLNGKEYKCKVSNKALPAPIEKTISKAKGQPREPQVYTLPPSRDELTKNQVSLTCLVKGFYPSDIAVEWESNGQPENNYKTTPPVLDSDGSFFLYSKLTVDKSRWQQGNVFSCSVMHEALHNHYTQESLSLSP
light: B1 light
notes: also called Ho Ab S298_20W

molecular target: T1, FcγRIa (human, UniProt P12314 16-292); experiment: SPR (Biacore); Ho Ab vs HoCon Ab GpH7-B3/GpL16-k0
T1 construct: extracellular domain; Soluble extracellular domain expressed in FreeStyle293 cells, used as analyte in Biacore; also called FcgRI; 1a; not shown: His tag attached to the C terminus
Description: Analysis of interaction between objective antibody and the FcγR was carried out using Biacore T100 (GE Healthcare). HBS-EP+ (GE Healthcare) was used as the running buffer, and the measurement temperature was set to 25° C. Chips produced by immobilizing the antigen peptide by the amine coupling method to a Series S Sencor Chip CM5 (GE Healthcare), or alternatively, chips produced by allowing preliminarily biotinylated antigen peptides to interact with and immobilize onto a Series S Sensor Chip SA (certified) (GE Healthcare) were used. Antibodies of interest were captured onto an antigen peptide-immobilized chip, and allowed to interact to each FcγR diluted with running buffer. To regenerate and repeatedly use the chip, the antibodies captured on the chip were washed off by reacting 10 mM glycine-HCl, pH 1.5.

T1 sequence (P12314 16-292): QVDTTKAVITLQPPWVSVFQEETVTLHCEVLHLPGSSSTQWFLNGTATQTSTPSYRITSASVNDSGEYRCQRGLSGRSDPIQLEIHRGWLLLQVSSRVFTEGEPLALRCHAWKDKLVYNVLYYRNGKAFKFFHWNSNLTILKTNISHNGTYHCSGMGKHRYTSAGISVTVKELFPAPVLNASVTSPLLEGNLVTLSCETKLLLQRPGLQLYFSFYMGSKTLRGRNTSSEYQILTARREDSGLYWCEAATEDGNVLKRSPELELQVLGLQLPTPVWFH

Row | Ho/Con_1a | Binder
1 | 102 relative binding, control = 100 | B1
2 | 102 relative binding, control = 100 | B2
3 | 102 relative binding, control = 100 | B3
4 | 101 relative binding, control = 100 | B4
5 | 108 relative binding, control = 100 | B5
6 | 94.5 relative binding, control = 100 | B6
7 | 101 relative binding, control = 100 | B7
8 | 103 relative binding, control = 100 | B8
9 | 98.2 relative binding, control = 100 | B9
10 | 103 relative binding, control = 100 | B10
11 | 101 relative binding, control = 100 | B11
12 | 106 relative binding, control = 100 | B12
13 | 100 relative binding, control = 100 | B13
14 | 106 relative binding, control = 100 | B14
15 | 102 relative binding, control = 100 | B15
16 | 101 relative binding, control = 100 | B16
17 | 104 relative binding, control = 100 | B17
18 | 102 relative binding, control = 100 | B18
19 | 101 relative binding, control = 100 | B19
20 | 102 relative binding, control = 100 | B20
21 | 101 relative binding, control = 100 | B21
22 | 101 relative binding, control = 100 | B22

Row | Ho/Con_1a | Binder
23 | 103 relative binding, control = 100 | B23
24 | 101 relative binding, control = 100 | B24
25 | 99.9 relative binding, control = 100 | B25
26 | 103 relative binding, control = 100 | B26
27 | 97.9 relative binding, control = 100 | B27
28 | 106 relative binding, control = 100 | B28
29 | 107 relative binding, control = 100 | B29
30 | 101 relative binding, control = 100 | B30
31 | 107 relative binding, control = 100 | B31
32 | 104 relative binding, control = 100 | B32
33 | 104 relative binding, control = 100 | B33
34 | 106 relative binding, control = 100 | B34
35 | 103 relative binding, control = 100 | B35
36 | 103 relative binding, control = 100 | B36
37 | 103 relative binding, control = 100 | B37
38 | 106 relative binding, control = 100 | B38
39 | 105 relative binding, control = 100 | B39
40 | 101 relative binding, control = 100 | B40
41 | 106 relative binding, control = 100 | B41
42 | 93.4 relative binding, control = 100 | B42
43 | 102 relative binding, control = 100 | B43
44 | 71.5 relative binding, control = 100 | B44

Source: patent US20150344570A1 (published 2015)
